Results taken from the supplement of paper PMC10126150.
± gives the standard deviation of the averaged measurements.

System: ATP
Assay: switch fluorescence ratio, 500 uM ATP over buffer (Cy3 cluster intensity, sum of 5 cycles each) (fold (ratio)); higher = stronger signal-on switching upon ATP binding; sequences stand for … in TCGTCGGCAGCGTCAGATGTGTATAAGAGACAGTTTTTTTTTTTTTTTTTTTTTTTTT…TC
Conditions: aptamer strand: ATP DNA aptamer (quencher-CACCTGGGGGAGTATTGCGGAGGAAGG + anchor), 100 nM annealed; ATP concentration: 500 uM
Summary of the method: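 Switching-strand clusters labelled with Cy3 on a modified Illumina MiSeq flow-cell were annealed to 100 nM quencher-labelled ATP aptamer, imaged in selection buffer, and re-imaged after 15 min with 500 uM ATP at 22 °C. This was done over five cycles with NaOH stripping and re-annealing in between. The fluorescence ratio is summed target-cycle over summed buffer-cycle Cy3 intensity per cluster, averaged per switch-domain sequence, excluding clusters outside 100-1000 RFU.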
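Further: ATP exposure 15 min at 22 °C before imaging.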

GTTGGGGATT
switch fluorescence ratio: 0.977 ± 0.016

GTTGGGGCCG
switch fluorescence ratio: 0.991 ± 0.0068

GTTGGGGCTT
switch fluorescence ratio: 1.021 ± 0.002

GTTGGGGTGT
switch fluorescence ratio: 1.01 ± 0.013

GTTGGGTTAT
switch fluorescence ratio: 0.982 ± 0.017

GTTGGTAGCC
switch fluorescence ratio: 0.978 ± 0.022

GTTGGTAGGG
switch fluorescence ratio: 0.9979 ± 0.0099

GTTGGTAGGT
switch fluorescence ratio: 0.997 ± 0.019

GTTGGTTAGC
switch fluorescence ratio: 1.02 ± 0.035

GTTGGTTGTA
switch fluorescence ratio: 0.987 ± 0.057

GTTGTAAAGG
switch fluorescence ratio: 1.02 ± 0.026

GTTGTAGATG
switch fluorescence ratio: 1.005 ± 0.0058

GTTGTAGCAC
switch fluorescence ratio: 1.07 ± 0.029

GTTGTAGTCC
switch fluorescence ratio: 1.02 ± 0.022

GTTGTCAGGT
switch fluorescence ratio: 1.001 ± 0.0018

GTTGTCTTTG
switch fluorescence ratio: 1.01 ± 0.031

GTTGTGAATA
switch fluorescence ratio: 0.994 ± 0.028

GTTGTGGGAA
switch fluorescence ratio: 0.98266 ± 0.00039

GTTGTGGGTG
switch fluorescence ratio: 1.03 ± 0.018

GTTGTGGTTT
switch fluorescence ratio: 0.975 ± 0.034

GTTGTGTCTT
switch fluorescence ratio: 0.991 ± 0.041

GTTGTGTTAA
switch fluorescence ratio: 0.997 ± 0.014

GTTGTTGCAA
switch fluorescence ratio: 1.13 ± 0.21

GTTGTTGTCG
switch fluorescence ratio: 0.974 ± 0.1

GTTGTTTTAG
switch fluorescence ratio: 0.992 ± 0.019

GTTTAAAGAC
switch fluorescence ratio: 0.981 ± 0.02

GTTTAACGGG
switch fluorescence ratio: 1.03 ± 0.051

GTTTAAGTTA
switch fluorescence ratio: 0.991 ± 0.025

GTTTAATCTT
switch fluorescence ratio: 0.9896 ± 0.0031

GTTTAATGGA
switch fluorescence ratio: 1.01 ± 0.021

GTTTAATTGG
switch fluorescence ratio: 1 ± 0.024

GTTTACCTTC
switch fluorescence ratio: 1.04 ± 0.062

GTTTAGAAAG
switch fluorescence ratio: 1.01 ± 0.017

GTTTAGAGGA
switch fluorescence ratio: 1 ± 0.025

GTTTAGAGGT
switch fluorescence ratio: 0.9925 ± 0.0082

GTTTAGAGTG
switch fluorescence ratio: 0.944 ± 0.033

GTTTAGGGGA
switch fluorescence ratio: 0.999 ± 0.015

GTTTAGGGTT
switch fluorescence ratio: 1.02 ± 0.018

GTTTAGTATT
switch fluorescence ratio: 0.999 ± 0.019

GTTTATCGGG
switch fluorescence ratio: 0.964 ± 0.0099

GTTTATGGTG
switch fluorescence ratio: 0.999 ± 0.025

GTTTATTTCG
switch fluorescence ratio: 0.987 ± 0.059

GTTTCAGGGA
switch fluorescence ratio: 1.01 ± 0.013

GTTTCAGGTA
switch fluorescence ratio: 1.02 ± 0.029

GTTTCATGGG
switch fluorescence ratio: 0.9685 ± 0.0041

GTTTCCGATT
switch fluorescence ratio: 0.991 ± 0.019

GTTTCGAGGG
switch fluorescence ratio: 0.974 ± 0.037

GTTTCGGGGT
switch fluorescence ratio: 1.004 ± 0.0055

GTTTCGTTGT
switch fluorescence ratio: 0.9798 ± 0.0019

GTTTCTCATC
switch fluorescence ratio: 1.02 ± 0.011

GTTTCTTAGA
switch fluorescence ratio: 0.978 ± 0.036

GTTTCTTTTA
switch fluorescence ratio: 0.99 ± 0.02

GTTTGAATTG
switch fluorescence ratio: 0.9879 ± 0.0049

GTTTGAGGGT
switch fluorescence ratio: 0.9939 ± 0.0087

GTTTGAGTCT
switch fluorescence ratio: 1.01 ± 0.028

GTTTGATCGG
switch fluorescence ratio: 0.97 ± 0.013

GTTTGCACTG
switch fluorescence ratio: 1.04 ± 0.021

GTTTGCCTGT
switch fluorescence ratio: 0.9845 ± 0.0094

GTTTGCTTTT
switch fluorescence ratio: 1 ± 0.046

GTTTGGATCG
switch fluorescence ratio: 1 ± 0.015

GTTTGGGATT
switch fluorescence ratio: 1 ± 0.024

GTTTGGGCGG
switch fluorescence ratio: 0.978 ± 0.057

GTTTGGGGTT
switch fluorescence ratio: 0.979 ± 0.031

GTTTGGGTTT
switch fluorescence ratio: 0.992 ± 0.031

GTTTGGTCGG
switch fluorescence ratio: 1.04 ± 0.035

GTTTGTAAGT
switch fluorescence ratio: 1.01 ± 0.045

GTTTGTAGGG
switch fluorescence ratio: 0.988 ± 0.037

GTTTGTATGG
switch fluorescence ratio: 1.01 ± 0.018

GTTTGTCAGC
switch fluorescence ratio: 1.01 ± 0.024

GTTTGTCCGA
switch fluorescence ratio: 1.01 ± 0.012

GTTTGTGC
switch fluorescence ratio: 0.998 ± 0.059

GTTTGTGTCC
switch fluorescence ratio: 0.965 ± 0.079

GTTTGTTTAG
switch fluorescence ratio: 1.011 ± 0.006

GTTTGTTTGT
switch fluorescence ratio: 0.995 ± 0.019

GTTTTACACG
switch fluorescence ratio: 0.954 ± 0.031

GTTTTAGAGT
switch fluorescence ratio: 0.989 ± 0.02

GTTTTATATG
switch fluorescence ratio: 0.978 ± 0.011

GTTTTATTAG
switch fluorescence ratio: 0.951 ± 0.032

GTTTTCACTC
switch fluorescence ratio: 1.0086 ± 0.00085

GTTTTCCCTT
switch fluorescence ratio: 0.982 ± 0.016

GTTTTCTATA
switch fluorescence ratio: 0.975 ± 0.039

GTTTTGCCTG
switch fluorescence ratio: 0.998 ± 0.0045

GTTTTGGAGC
switch fluorescence ratio: 1.03 ± 0.067

GTTTTGGGAA
switch fluorescence ratio: 1.02 ± 0.026

GTTTTGGTAG
switch fluorescence ratio: 1.001 ± 0.0067

GTTTTGTATT
switch fluorescence ratio: 1 ± 0.029

GTTTTGTTGT
switch fluorescence ratio: 0.99 ± 0.027

GTTTTTAATT
switch fluorescence ratio: 0.95322 ± 0.0005

GTTTTTACCT
switch fluorescence ratio: 1.21 ± 0.19

GTTTTTAGGG
switch fluorescence ratio: 1.02 ± 0.021

GTTTTTATGT
switch fluorescence ratio: 0.973 ± 0.014

GTTTTTCAGG
switch fluorescence ratio: 1 ± 0.017

GTTTTTGAGT
switch fluorescence ratio: 1.016 ± 0.0031

GTTTTTGCTG
switch fluorescence ratio: 0.976 ± 0.024

GTTTTTGGCG
switch fluorescence ratio: 0.94 ± 0.16

GTTTTTTGCG
switch fluorescence ratio: 0.999 ± 0.036

GTTTTTTGGA
switch fluorescence ratio: 1.01 ± 0.018

GTTTTTTGGC
switch fluorescence ratio: 0.97 ± 0.058

GTTTTTTTGT
switch fluorescence ratio: 0.966 ± 0.001

GTTTTTTTTC
switch fluorescence ratio: 0.985 ± 0.011

TAAAAAAAAG
switch fluorescence ratio: 1.01 ± 0.039

TAAAAAAATA
switch fluorescence ratio: 0.971 ± 0.0079

TAAAAAATAT
switch fluorescence ratio: 0.967 ± 0.043

TAAAAAATTT
switch fluorescence ratio: 1.02 ± 0.035

TAAAAATATA
switch fluorescence ratio: 1 ± 0.034

TAAAACTAAA
switch fluorescence ratio: 0.9977 ± 0.0012

TAAAAGGAAA
switch fluorescence ratio: 0.9773 ± 0.0045

TAAAAGGCAA
switch fluorescence ratio: 1.14 ± 0.085

TAAAAGGGGA
switch fluorescence ratio: 0.982 ± 0.029

TAAAAGTCCG
switch fluorescence ratio: 1.06 ± 0.022

TAAAAGTGAG
switch fluorescence ratio: 1 ± 0.022

TAAAAGTGTT
switch fluorescence ratio: 1.07 ± 0.059

TAAAAGTTGG
switch fluorescence ratio: 0.985 ± 0.029

TAAAATAGTT
switch fluorescence ratio: 0.972 ± 0.026

TAAAATCCGT
switch fluorescence ratio: 0.981 ± 0.011

TAAAATCGGG
switch fluorescence ratio: 0.958 ± 0.023

TAAAATGAGG
switch fluorescence ratio: 0.987 ± 0.043

TAAAATGCCG
switch fluorescence ratio: 1.01 ± 0.061

TAAAATTGAA
switch fluorescence ratio: 0.9905 ± 0.0041

TAAAATTGGG
switch fluorescence ratio: 0.989 ± 0.014

TAAACAATTA
switch fluorescence ratio: 0.9734 ± 0.0095

TAAACCCACT
switch fluorescence ratio: 1.24 ± 0.063

TAAACGGGAC
switch fluorescence ratio: 1.11 ± 0.019

TAAACTCCTT
switch fluorescence ratio: 1.05 ± 0.035

TAAACTGACG
switch fluorescence ratio: 1.03 ± 0.051

TAAACTGCGG
switch fluorescence ratio: 1.03 ± 0.02

TAAACTGGGA
switch fluorescence ratio: 1.004 ± 0.0093

TAAAGAACGT
switch fluorescence ratio: 0.942 ± 0.015

TAAAGATAGC
switch fluorescence ratio: 1.02 ± 0.064

TAAAGATGAG
switch fluorescence ratio: 1.0091 ± 0.00022

TAAAGCGGTG
switch fluorescence ratio: 0.992 ± 0.027

TAAAGCTTTT
switch fluorescence ratio: 1.09 ± 0.16

TAAAGGCGAG
switch fluorescence ratio: 1.02 ± 0.027

TAAAGGCTTG
switch fluorescence ratio: 0.976 ± 0.034

TAAAGGGCAC
switch fluorescence ratio: 1.011 ± 0.0093

TAAAGGTATG
switch fluorescence ratio: 1.02 ± 0.013

TAAAGGTTGG
switch fluorescence ratio: 0.962 ± 0.025

TAAAGTAGTC
switch fluorescence ratio: 1.05 ± 0.044

TAAAGTATTT
switch fluorescence ratio: 1.04 ± 0.073

TAAAGTTAGA
switch fluorescence ratio: 0.989 ± 0.012

TAAAGTTAGC
switch fluorescence ratio: 0.995 ± 0.028

TAAAGTTCAG
switch fluorescence ratio: 0.9685 ± 0.0073

TAAAGTTTTT
switch fluorescence ratio: 1.002 ± 0.0088

TAAATAGGGC
switch fluorescence ratio: 1.02 ± 0.045

TAAATATTT
switch fluorescence ratio: 0.996 ± 0.025

TAAATCACGG
switch fluorescence ratio: 1.02 ± 0.038

TAAATCCGGT
switch fluorescence ratio: 0.997 ± 0.041

TAAATCCTA
switch fluorescence ratio: 1.02 ± 0.022

TAAATCGTTG
switch fluorescence ratio: 0.9906 ± 0.005

TAAATGGACG
switch fluorescence ratio: 0.9669 ± 0.0095

TAAATGGGGA
switch fluorescence ratio: 0.995 ± 0.025

TAAATTGGCG
switch fluorescence ratio: 0.987 ± 0.037

TAAATTGGTT
switch fluorescence ratio: 0.981 ± 0.0078

TAAATTTGAA
switch fluorescence ratio: 0.976 ± 0.0034

TAAATTTGGG
switch fluorescence ratio: 0.974 ± 0.017

TAAATTTTTT
switch fluorescence ratio: 0.996 ± 0.032

TAACAACGTA
switch fluorescence ratio: 1.066 ± 0.0064

TAACAGATTT
switch fluorescence ratio: 0.958 ± 0.0034

TAACAGTAGG
switch fluorescence ratio: 1.05 ± 0.038

TAACATCGGT
switch fluorescence ratio: 0.996 ± 0.021

TAACATGTGG
switch fluorescence ratio: 1.017 ± 0.01

TAACCCTGAA
switch fluorescence ratio: 0.984 ± 0.015

TAACCGGATT
switch fluorescence ratio: 1.1 ± 0.053

TAACGAAACT
switch fluorescence ratio: 1.26 ± 0.28

TAACGAGTCT
switch fluorescence ratio: 1.01 ± 0.029

TAACGCAGCT
switch fluorescence ratio: 1.07 ± 0.073

TAACGGAGT
switch fluorescence ratio: 1.01 ± 0.015

TAACGGCTGC
switch fluorescence ratio: 1 ± 0.051

TAACGGGGCA
switch fluorescence ratio: 0.9842 ± 0.003

TAACGGGTGG
switch fluorescence ratio: 1.01 ± 0.037

TAACGTTTTG
switch fluorescence ratio: 0.989 ± 0.025

TAACTATTTT
switch fluorescence ratio: 1.01 ± 0.016

TAACTCACTA
switch fluorescence ratio: 1.15 ± 0.017

TAACTGTTTT
switch fluorescence ratio: 1.06 ± 0.056

TAACTTTTCG
switch fluorescence ratio: 1.004 ± 0.0028

TAAGAAAATT
switch fluorescence ratio: 0.993 ± 0.023

TAAGACAAAG
switch fluorescence ratio: 0.992 ± 0.053

TAAGACGGTT
switch fluorescence ratio: 1.01 ± 0.015

TAAGAGGTTT
switch fluorescence ratio: 0.995 ± 0.01

TAAGAGTACA
switch fluorescence ratio: 1.07 ± 0.011

TAAGAGTGCT
switch fluorescence ratio: 0.9726 ± 0.0043

TAAGAGTTC
switch fluorescence ratio: 0.99 ± 0.034

TAAGCAGACG
switch fluorescence ratio: 0.9687 ± 0.0061

TAAGCAGTTA
switch fluorescence ratio: 1.08 ± 0.12

TAAGCCCACG
switch fluorescence ratio: 1.09 ± 0.023

TAAGCGGCGG
switch fluorescence ratio: 1 ± 0.036

TAAGCGGGGG
switch fluorescence ratio: 0.999 ± 0.017

TAAGCTCTGT
switch fluorescence ratio: 0.984 ± 0.021

TAAGCTGACG
switch fluorescence ratio: 0.9973 ± 0.0098

TAAGCTTATG
switch fluorescence ratio: 0.9852 ± 0.0033

TAAGGAAGTT
switch fluorescence ratio: 1.009 ± 0.0096

TAAGGACGAC
switch fluorescence ratio: 1.02 ± 0.026

TAAGGACGGC
switch fluorescence ratio: 1.06 ± 0.035

TAAGGAGTAA
switch fluorescence ratio: 1.034 ± 0.01

TAAGGAGTGC
switch fluorescence ratio: 0.955 ± 0.12

TAAGGATTAT
switch fluorescence ratio: 1.008 ± 0.0024

TAAGGCATAG
switch fluorescence ratio: 1.04 ± 0.044

TAAGGCGAAC
switch fluorescence ratio: 1.03 ± 0.015

TAAGGCGGTG
switch fluorescence ratio: 1.04 ± 0.061

TAAGGCGTAG
switch fluorescence ratio: 1.08 ± 0.061
